From article PMC2829074
Ends that are not written are not given here.

Experiments:
[1] = target: denatured multimeric human vitronectin (VTNC) (human)
[2] = target: somatomedin B domain (SMTB 1–44) of vitronectin (human); test: ELISA; competition: SMTB 1–44 (1.25 µg/well) immobilized; Cyr61 (30 nM) mixed with stable mutant PAI-1 (0, 50, 500 nM) or ixolaris (500 nM) in PBS-T, added for 90 minutes; bound Cyr61 detected with anti-Cyr61 antibody
[3] = target: somatomedin B domain (SMTB 1–44) of vitronectin (human); test: SPR; kinetics, Biacore T100: monomeric (667.4 RU) or multimeric (625.2 RU) VTNC or SMTB 1–44 (337.2 RU) immobilized on CM5 by amine coupling; analyte injected 90 s at 30 µl/minute, 25°C, HBS-P (10 mM Hepes pH 7.4, 150 mM NaCl, 0.005% P20); Cyr61 fitted by the global two-state (conformational change) model, PAI-1 by the Langmuir 1:1 model
[4] = target: Cyr61/CCN1 (UniProt O00622); test: ELISA; competitive ELISA: wells coated with multimeric VTNC (25 ng/well); Cyr61 (30 nM) co-incubated for 90 minutes with increasing concentrations of soluble VTNC forms, SMTB 1–44 or ixolaris; VTNC-bound Cyr61 detected with anti-Cyr61 antibody
[5] = target: denatured multimeric human vitronectin (VTNC) (human); test: ELISA; solid-phase binding assay as a3 on multimeric VTNC, in TBS 0.4% Tween supplemented with 0.5% gelatin; apparent KD
[6] = target: denatured multimeric human vitronectin (VTNC) (human); test: ELISA; solid-phase binding assay: VTNC (25 ng/well) or SMTB 1–44 (2.5 µg/well) immobilized on plates, Cyr61 0–1 µM in PBS-0.4% Tween 20 for 90 minutes, detected with anti-Cyr61 monoclonal antibody; apparent KD by Langmuir isotherm
[7] = target: native monomeric human vitronectin (VTNC) (human); test: as above
[8] = target: somatomedin B domain (SMTB 1–44) of vitronectin (human); test: as above
[9] = target: denatured multimeric human vitronectin (VTNC) (human); test: SPR; kinetics, Biacore T100: monomeric (667.4 RU) or multimeric (625.2 RU) VTNC or SMTB 1–44 (337.2 RU) immobilized on CM5 by amine coupling; analyte injected 90 s at 30 µl/minute, 25°C, HBS-P (10 mM Hepes pH 7.4, 150 mM NaCl, 0.005% P20); Cyr61 fitted by the global two-state (conformational change) model, PAI-1 by the Langmuir 1:1 model
[10] = target: native monomeric human vitronectin (VTNC) (human); test: as above
[11] = target: PAI-1 (recombinant stable mutant form) (UniProt P05121); test: ITC; VP-ITC, 30°C, 5 µL injections of 10 µM SMTB 1–44 into 1 µM PAI-1 or Cyr61 in the cell; 20 mM Tris-HCl, 0.15 M NaCl, pH 7.4; single-site model

PAI-1 (recombinant stable mutant form) (from UniProt P05121 24-402) (natural protein)
inhibition of adhesion of uPAR-bearing PMA-differentiated U937 cells to VTNC-coated wells pre-incubated with stable mutant PAI-1 (1.5 µM); pair blocked: uPAR with VTNC [1]: > 90%
percent inhibition of Cyr61 binding to SMTB 1–44 at 500 nM PAI-1 [2]: > 80%
Kd [3]: 0.0433 nM
koff [3]: 0.0001 s⁻¹
kon [3]: 2.31e+06 M⁻¹ s⁻¹

denatured multimeric human vitronectin (VTNC) (natural protein)
percent inhibition of Cyr61 binding to immobilized VTNC at 15 µg/ml [4]: > 50%

B1: Cyr61/CCN1 (natural protein)
chain: TCPAACHCPLEAPKCAPGVGLVRDGCGCCKVCAKQLNEDCSKTQPCDHTKGLECNFGASSTALKGICRAQSEGRPCEYNSRIYQNGESFQPNCKHQCTCIDGAVGCIPLCPQELSLPNLGCPNPRLVKVTGQCCEEWVCDEDSIKDPMEDQDGLLGKELGFDASEVELTRNNELIAVGKGSSLKRLPVFGMEPRILYNPLQGQKCIVQTTSWSQCSKTCGTGISTRVTNDNPECRLVKETRICEVRPCGQPVYSSLKKGKKCSKTKKSPEPVRFTYAGCLSVKKYRPKYCGSCVDGRCCTPQLTRTVKMRFRCEDGETFSKNVMMIQSCKCNYNCPHANEAAFPFYRLFNDIHKFRD
inhibition of adhesion of uPAR-bearing PMA-differentiated U937 cells to VTNC-coated wells pre-incubated with Cyr61 (1.5 µM); pair blocked: uPAR with VTNC [1]: 40%
Kd [5]: 36.5 nM
Kd [6]: 22.6 nM
Kd [7]: 26.5 nM
Kd [8]: 27.2 nM
Kd [9]: 27.6 nM
ka1 (two-state model, step 1) [9]: 104000 M⁻¹ s⁻¹
ka2 (two-state model, step 2) [9]: 0.00255 s⁻¹
kd1 (two-state model, step 1) [9]: 0.0695 s⁻¹
kd2 (two-state model, step 2) [9]: 0.00011 s⁻¹
Kd [10]: 5.66 nM
ka1 (two-state model, step 1) [10]: 568000 M⁻¹ s⁻¹
ka2 (two-state model, step 2) [10]: 0.00783 s⁻¹
kd1 (two-state model, step 1) [10]: 0.0245 s⁻¹
kd2 (two-state model, step 2) [10]: 0.00118 s⁻¹
Kd [3]: 10.1 nM
ka1 (two-state model, step 1) [3]: 127000 M⁻¹ s⁻¹
ka2 (two-state model, step 2) [3]: 0.0109 s⁻¹
kd1 (two-state model, step 1) [3]: 0.025 s⁻¹
kd2 (two-state model, step 2) [3]: 0.000592 s⁻¹

B2: somatomedin B domain (SMTB 1–44) of vitronectin (peptide)
peptide: DQESCKGRCTEGFNVDKKCQCDELCSYYQSCCTDYTAECKPQVT
modifications: disulfide (positions not given here); also: eight oxidized cysteines, pairing not given here
Kd [11]: < 1 nM
dH [11]: -24 kcal/mol
stoichiometry N [11]: 0.77
